Experimental data from PMC8080463.

T1: CRP (UniProt P02741 19-224)
T1 sequence: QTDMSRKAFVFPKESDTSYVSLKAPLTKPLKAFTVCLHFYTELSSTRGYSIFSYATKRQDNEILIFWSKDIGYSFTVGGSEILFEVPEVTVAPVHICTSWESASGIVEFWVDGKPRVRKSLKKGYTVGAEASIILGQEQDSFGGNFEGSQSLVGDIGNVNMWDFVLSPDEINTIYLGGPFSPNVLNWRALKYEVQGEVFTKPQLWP

T2: PLGF (Homo sapiens, UniProt P49763 19-141+214-221, internal_change)
T2 sequence: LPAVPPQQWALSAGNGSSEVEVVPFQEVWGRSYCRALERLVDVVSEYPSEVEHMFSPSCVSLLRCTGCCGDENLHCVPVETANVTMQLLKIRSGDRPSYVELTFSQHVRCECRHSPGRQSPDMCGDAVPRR


These binders were tested against TNF-alpha (UniProt P01375 77-233) (assay: EMSA).
Sequence of TNF-alpha (P01375 77-233): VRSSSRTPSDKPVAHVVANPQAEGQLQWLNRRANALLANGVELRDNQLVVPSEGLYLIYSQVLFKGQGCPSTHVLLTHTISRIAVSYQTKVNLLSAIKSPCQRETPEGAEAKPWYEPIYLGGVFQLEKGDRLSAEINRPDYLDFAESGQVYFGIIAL

| Binder | binding result |
| --- | --- |
| GGGTTTGGGTTTGGGGGTAGGG (structured_DNA) [TNFa-PQS1] | no binding |
| GGGCATGGGGACGGGGTTCAGCCTCCAGGG (structured_DNA) [TNFa-PQS2] | no binding |
| GGGAGAGAGGGAGGGAGGTCGTTTGGG (structured_DNA) [TNFa-PQS4] | no binding |
| GGGTCCGAACAGGGACGATGGGGGTGGG (structured_DNA) [TNFa-PQS3] | no binding |

Each binder was assayed against Annexin 2 (UniProt P07355 2-339) (assay: EMSA).
Sequence of Annexin 2 (P07355 2-339): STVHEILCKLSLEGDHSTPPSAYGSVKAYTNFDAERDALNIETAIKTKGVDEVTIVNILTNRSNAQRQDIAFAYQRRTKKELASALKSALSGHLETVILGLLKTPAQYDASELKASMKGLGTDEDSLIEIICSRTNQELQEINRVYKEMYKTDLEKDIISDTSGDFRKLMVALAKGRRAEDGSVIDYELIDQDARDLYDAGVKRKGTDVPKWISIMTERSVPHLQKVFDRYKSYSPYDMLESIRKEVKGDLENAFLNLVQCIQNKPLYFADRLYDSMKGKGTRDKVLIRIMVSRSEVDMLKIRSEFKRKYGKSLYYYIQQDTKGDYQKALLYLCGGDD

| Binder | binding result |
| --- | --- |
| GGGGAGGCGGGGCGGGGCGGGG (structured_DNA) [Annexin2-PQS6] | binds |
| GGGCCGGGAGGGTGCAGGG (structured_DNA) [Annexin2-PQS7] | binds |
| GGGCAGGGCCAGGGGCGCTGGG (structured_DNA) [Annexin2-PQS5] | binds |
| GGACCTGCGGCTCCCTGGGCGG (structured_DNA) [Annexin2-PQS1] | binds |
| GGCGCCTGGCGCGTCTGGAATGCGG (structured_DNA) [Annexin2-PQS2] | binds |

What follows are binders tested against T1, CRP (assay: EMSA).

| Binder | binding result |
| --- | --- |
| GGGGACTGTTGTGGGGTGGGGGGAGGGGGG (ssDNA) [CRP-PQS2] | binds |

These binders were tested against HGF (UniProt P14210;P14210 32-494;495-728) (assay: SPR).
Sequence of HGF (P14210 32-494, chain 1 of 2): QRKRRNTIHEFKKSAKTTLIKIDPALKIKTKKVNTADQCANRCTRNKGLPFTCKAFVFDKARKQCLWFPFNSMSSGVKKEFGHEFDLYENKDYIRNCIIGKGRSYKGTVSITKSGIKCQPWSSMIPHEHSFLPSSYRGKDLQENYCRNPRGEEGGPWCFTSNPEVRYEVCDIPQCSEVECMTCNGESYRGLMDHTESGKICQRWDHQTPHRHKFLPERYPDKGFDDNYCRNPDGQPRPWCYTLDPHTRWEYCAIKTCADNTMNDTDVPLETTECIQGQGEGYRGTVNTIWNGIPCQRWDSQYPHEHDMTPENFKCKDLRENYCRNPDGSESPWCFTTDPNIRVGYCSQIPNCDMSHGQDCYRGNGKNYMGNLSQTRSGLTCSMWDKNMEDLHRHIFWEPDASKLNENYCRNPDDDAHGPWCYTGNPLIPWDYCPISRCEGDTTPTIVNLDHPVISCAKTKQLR
Sequence of HGF (P14210 495-728, chain 2 of 2): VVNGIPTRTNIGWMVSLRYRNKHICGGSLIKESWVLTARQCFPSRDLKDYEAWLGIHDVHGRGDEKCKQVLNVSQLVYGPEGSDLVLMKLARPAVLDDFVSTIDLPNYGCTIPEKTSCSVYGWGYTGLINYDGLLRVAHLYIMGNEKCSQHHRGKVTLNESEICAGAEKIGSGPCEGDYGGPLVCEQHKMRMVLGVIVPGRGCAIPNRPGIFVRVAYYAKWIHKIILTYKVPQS

| Binder | binding result |
| --- | --- |
| GGACGGGCTGGCGG (ssDNA) [HGF-PQS5] | no binding |
| GGGGATGGCGATGGGGAGCAGG (structured_DNA) [HGF-PQS3] | no binding |
| GGAAAGGAGGGGGCTGG (structured_DNA) [HGF-PQS9] | no binding |
| GGAAGGGAGGAGCAAGG (structured_DNA) [HGF-PQS6] | no binding |
| GGAATAGGGAAGGTTAGCAGG (ssDNA) [HGF-PQS2] | no binding |
| GGGCTGGCAGGAGTTTGG (ssDNA) [HGF-PQS4] | no binding |

The binders below were run against HB-EGF (UniProt Q99075 63-148) (assay: SPR).
Sequence of HB-EGF (Q99075 63-148): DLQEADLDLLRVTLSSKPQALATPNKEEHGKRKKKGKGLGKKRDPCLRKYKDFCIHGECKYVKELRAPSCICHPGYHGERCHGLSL

| Binder | binding result |
| --- | --- |
| GGCACGGGCCACTTGGTGGGG (ssDNA) [HBEGF-PQS10] | no binding |
| GGACGGGCGTCGGCATCGG (ssDNA) [HBEGF-PQS11] | no binding |
| GGCGGGCGGCAGACGGTGCCCGG (ssDNA) [HBEGF-PQS7] | no binding |
| GGTCAGGGGTCTGGGCGGG (structured_DNA) [HBEGF-PQS12] | no binding |
| GGAGGCGGCCGG (ssDNA) [HBEGF-PQS14] | no binding |
| GGAGCGGCTTCGGAGAGG (ssDNA) [HBEGF-PQS13] | no binding |

What follows are binders tested against T1, CRP (assay: SPR).

| Binder | binding result |
| --- | --- |
| GGGATCGTGGAGTTCTGGGTAGATGGGAAGCCCAGGG (ssDNA) [CRP-PQS1] | no binding |

Each binder was assayed against T2, PLGF (assay: SPR).

| Binder | binding result |
| --- | --- |
| GGGCGGGTGTCCCGGGTGTCGGG (structured_DNA) [PLGF-PQS4] | no binding |
| GGGCGCCGAGGGGCAGGCGGGTCCCGGGG (structured_DNA) [PLGF-PQS1] | no binding |
| GGGAGGGAGGGAGGG (structured_DNA) [PLGF-PQS2] | no binding |
| GGGCCTCGCGGGCCAGTCGGGCGTCGCGGG (structured_DNA) [PLGF-PQS3] | no binding |

What follows are binders tested against ApoE4 (UniProt P02649 19-317, C130R) (assay: SPR).
Sequence of ApoE4 (P02649 19-317 C130R): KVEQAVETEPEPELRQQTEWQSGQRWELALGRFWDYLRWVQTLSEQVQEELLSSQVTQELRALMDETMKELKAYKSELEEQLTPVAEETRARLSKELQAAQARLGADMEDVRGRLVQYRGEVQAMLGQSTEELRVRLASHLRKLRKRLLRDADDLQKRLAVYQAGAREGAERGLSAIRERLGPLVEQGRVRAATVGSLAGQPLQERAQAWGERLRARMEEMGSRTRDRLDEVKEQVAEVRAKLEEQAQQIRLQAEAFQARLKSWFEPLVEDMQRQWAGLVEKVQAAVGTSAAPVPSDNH

| Binder | binding result | Kd |
| --- | --- | --- |
| GGGCTGGGATGGGGCGGG (structured_DNA) [ApoE4-PQS8] | no binding |  |
| GGCCCCTGGTGGAACAGGG (structured_DNA) [ApoE4-PQS3] | no binding |  |
| GGACGAGGTGAAGGAGCAGG (structured_DNA) [ApoE4-PQS6] | no binding |  |
| GGCTGGTGGAGAAGGTGCAGG (structured_DNA) [ApoE4-PQS7] | no binding |  |
| GGTGGCGGAGG (structured_DNA) [ApoE4-PQS1] |  | 60 nM |
| GGATGGAGGAGATGGGCAGCCGG (structured_DNA) [ApoE4-PQS5] | no binding |  |
| GGCCCGGCTGGGCGCGG (structured_DNA) [ApoE4-PQS2] | no binding |  |
| GGAGCGGGCCCAGGCCTGGG (structured_DNA) [ApoE4-PQS4] | no binding |  |
